For three substances, Kd and concentration of b12 which showed appreciable binding results are on record in US20110217338A1.

For assay [1], the target named is IgG b12, broadly neutralizing anti-HIV-1 gp120 antibody. The assay is described as follows: SPR, Biacore 2000, 25 C, IgG b12 immobilized on CM5 chip (900 RU). On the technique in general: Surface plasmon resonance follows binding to a sensor surface in real time, without labels.
In assay [2] the target is b122a displayed on the surface of yeast EBY100. As to the kind of experiment: flow cytometry of yeast EBY100 displaying b122a, b12 detected with anti-human-PE.

In assay [1], Core gp120 yielded an equilibrium dissociation constant (Kd) of 0.022 µM.
For the substance “IgG b12, broadly neutralizing anti-HIV-1 gp120 antibody”, in assay [2], the concentration of b12 which showed appreciable binding turned out to be 9 µM.
Turning to Wt gp120 (full-length HIV-1 gp120), the dissociation constant Kd in assay [1] came out at 0.017 µM.

As usually defined, the Kd is the concentration at which binding is half-saturated. A high value points to a looser complex.
